{
  "source": "a protein production outcome set (Wang et al. 2014)",
  "data": [
    {"assay": "label from the status in PepcDB records", "values": [
      {"sequence": "MQRLLLASSLLLALSACSDKSAPANTADAAAPAAAPAATAPATAPELIPRDALFGNPERASVRISPDGKYLSWVAPLDGVLNVWVAPVDAPDKARAITKDTARGIRSYYWTYHSDTLLYLRDTGGDEDFHLYAVNLSDGSSKDLTPFKKTNAEVYGISDQHPDAIMVGMNDRDAKWHDLYKVELASGTRTLVQKNTDSLDSYLLDGNYQLRYATRATDDAGRELLVPEGKGWKSVDRIPFEDVTNTAPAGLTDDGKTLYMLDSRNRDTAALYAIDTASNARTLLFEDARADAGSTLNDPKTGVVQAVSTDYLREEWKTLDTSIAADLQKLKSLGPGDAGIAARTLDDRTWIVAYSAAETPLTYYRYDRADGGKLTKLFSARPALEGKPLVPMWPQEIAARDGLKLVSYLSLPAEADSNHDGKADKAVPLVLFVHGGPWARDSYGYGAYEQWLANRGYAVLSVNFRGSTGFGKAFTNAGNGEWAGKMHYDLLDAVQWAVKQGVTTPQDVAIMGGSYGGYATLVGMTFTPDAFKCGVDIVGPANLNTLLGTVPPYWASFYKQLTKRMGDPATAAGKQWLTERSPLSHVDKISKPLLIGQGANDPRVKQAESDQIVNAMKAKNIPVTYVLFPDEGHGFQRPENSKAFNAVTEGFLSQCLGGRAQPIGADFEGSSITVPEGADRITGLADALKTHTQAIRK", "protein production": "failed"},
      {"sequence": "MQRQGSGGGSAVIRVRVAGGVLLAAHLMLVVWITLRPLDVPWVSPANLHPFAGIRADLALGPREAVRRIGEGLGLLAPLGVLLPMVAGRLAVSPLASLTRTVAAGALISLGIELLQTGVPGQVVDVDSLLLNTVGVALAHLAIVPAGRARLRRRAETRRRAALGREELSQGLTPTIPRVGIAP", "protein production": "failed"},
      {"sequence": "MQRRLERFDAKLVQSGLDALLVTGQNNIYYLTDFWGTNATVFITKNRRLFLTDSRYTLIAKQSVHGFDIIESKDPLKDIVKFVEVDKLETIGFDNQVSFAYYQALQAIFEGYTLSPQTNFMEELRMIKDEKELATIRKACSISDRAFTDVLDFIKPGQTTELQVANFLDFRMREYGASGISFESIIASGYRSAMPHGVASDKVIQSGETLTMDFGCYYNHYVSDMTRTIHIGETTDEEREIYDIVLRSNRALIDATKAGMTRRDYDKVARDVIVEAGYGDYFTHGIGHGIGLDIHEIPYFGNSDETIEAGMVLTDEPGIYLADKYGVRIEDDIIITENGCEVITLAPKELIVL", "protein production": "failed"},
      {"sequence": "MQRYETTSVQNITQQYVHWFRHSAPYINAHRNKTLVLMFGGEAVQHPNFQHIIHDIALLHSLGIRLILVHGARPQINQNLQEKQIETPIHLHRRVTTRESLACVMNAVGSIRLEIEALLSMGLANSPMFGARIDVVSGNFVTAKPYGIRDGVDFQLTGEVRAIDTDAIQRHLDNHNIVVLGPTGYSTTGEVFNLLAEEVATKTATALHADKLIFLGKKQGLLSDQGKLLRELTPQQLEPYIKHFQQLDHEMALHLQGAQTASLSGVHRVHLISYAYDGALIEELFTRDGIGTMITDAHYEDVRTATIQDVGGLINLLRPLEEEGILVYRSRERLESEISQFAVIERDGMILACAALYPIPTAKNEIRSAEIACVAVDPAYRKSNRGSQILHFLEEKARQEGILQLFVLTTRTAHWFLEHGFQTASVDDLPSARQELYNYQRNSLVFKKILM", "protein production": "failed"},
      {"sequence": "MQSKAHALTFTVLPITQKTDQWSVKVSEAKNVKEFTRPHKGEYQVYSLGSQKYRGKSSYSGCAIVLEHHHHHH", "protein production": "not failed"},
      {"sequence": "MQSSLSFSCGVKSTMAKSPVEVNLIPIEATPETFAEYGQVIEASRDGAGYGPNDAQLDLSKGIPRLYILRLKETPLGFFKITHHAKVTQCLGSIGGDIWYMGVAKPSLIEDDDDGRRVDTVKAKSGHLYIPPEVEEIRVFRFSGPKFVKLHRGTWHAGPLFSGSSIMDFYNLELSNTNVVDHTSHDFTKNNGVSFRFDT", "protein production": "failed"}
    ]}
  ]
}
